Assay [1] concerns the target T1, human CX3CR1 receptor (human, UniProt P49238 1-355).
T1 construct: Expressed on stably transfected HEK or CHO cells, or endogenous on human PBMC (CD8+ T cells, NK cells); also called HEK-CX3CR1 cells; CHO-CX3CR1 cells
T1 sequence: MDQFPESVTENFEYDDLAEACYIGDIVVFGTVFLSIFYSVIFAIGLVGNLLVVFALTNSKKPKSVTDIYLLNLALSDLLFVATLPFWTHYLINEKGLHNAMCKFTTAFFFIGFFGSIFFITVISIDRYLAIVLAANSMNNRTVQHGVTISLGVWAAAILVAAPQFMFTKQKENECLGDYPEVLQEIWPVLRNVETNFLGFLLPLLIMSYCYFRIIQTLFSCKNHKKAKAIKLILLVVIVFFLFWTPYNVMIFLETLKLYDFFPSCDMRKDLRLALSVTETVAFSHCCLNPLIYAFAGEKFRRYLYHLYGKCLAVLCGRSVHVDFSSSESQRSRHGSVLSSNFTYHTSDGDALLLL
Kind of assay: phage display selection on HEK-CX3CR1 cells, recovery of endocytosed phages.

Assay [2] deals with T1, human CX3CR1 receptor. The experiment in a line: phage display selection on HEK-CX3CR1 cells, elution with soluble CX3CL1. Here is the method: Phage particles are represented as cylinders (encapsulated phage genome) with multiple heads (pIII-CX3CL1 mutant fusion). […] (3) Stringent washing was used to remove nonspecifically bound phage. (4) An excess of soluble CX3CL1 (sCX3CL1) was added to remove surface-associated phage. Eluted phages were allowed to infect E. coli, and stocks of selected phages were prepared to be used in a new round of selection (steps 1 to 4).
A phage library of CX3CL1 mutants (10¹⁰ CFU) was directly incubated with 5.10⁶ HEK-CX3CR1 or HEK-CCR5 cells growing in 25 cm² tissue culture flasks (Becton Dickinson, Le Pont de Claix, France) at 37° C. at 5% CO₂ in 5 ml of supplemented RPMI-1640 medium. After 1 h, cells were washed 10 times at room temperature with 10 ml of phosphate-buffered saline (PBS) and then scraped from the plate into 10 ml of PBS-0.5% BSA. Cells were then pelleted and incubated for 20 min on ice in elution buffer consisting of an excess of soluble CX3CL1 (10 μM in 100 μl PBS-BSA). Cells were centrifuged (1000×g for 5 min) and supernatant was mixed with log-phase E. coli TG1 for production and purification of stock phage to be used in further rounds of selection, as described by Hartley et al. (2003, J Virol 77, 6637-44).

Positions count from the first letter of the chain named.

B1: phage-displayed CX3CL1 mutant with N-terminal sequence AAQGMS (other, not shown: large carriers)
chain: AAQGMSKCNITCSKMTSKIPVALLIHYQQNQASCGKRAIILETRQHRLFCADPKEQWVKDAMQHLDRQAAALTRNG
notes: Selected phage clone (agonist selection); not tested singly
In the case of B1, the binding result in the assay with human CX3CR1 receptor [1] is recorded as “binds”.

B2: phage-displayed CX3CL1 mutant with N-terminal sequence NPQALS (other, not shown: large carriers)
chain: B1 chain with A1N, A2P, G4A, M5L
notes: as for B1
For the molecule B2, the binding result in the assay with human CX3CR1 receptor [1] is on record as “binds”.

B3: phage-displayed CX3CL1 mutant with N-terminal sequence QHLGLS (other, not shown: large carriers)
chain: B1 chain with A1Q, A2H, Q3L, M5L
notes: as for B1
Regarding B3, the binding result in the assay with human CX3CR1 receptor [1] is “binds”.

B4: phage-displayed CX3CL1 mutant with N-terminal sequence QFPGVS (other, not shown: large carriers)
chain: B1 chain with A1Q, A2F, Q3P, M5V
notes: as for B1
Consider B4, for which the binding result with human CX3CR1 receptor [1] was “binds”.

B5: phage-displayed CX3CL1 mutant with N-terminal sequence QPVAVS (other, not shown: large carriers)
chain: B1 chain with A1Q, A2P, Q3V, G4A, M5V
notes: as for B1
Turning to B5, in the assay with human CX3CR1 receptor [1], the binding result is “binds”.

B6: phage-displayed CX3CL1 mutant with N-terminal sequence QPGGVS (other, not shown: large carriers)
chain: B1 chain with A1Q, A2P, Q3G, M5V
notes: as for B1
B6: the binding result with human CX3CR1 receptor [1] is given as “binds”.

B7: phage-displayed CX3CL1 mutant with N-terminal sequence GPQAMS (other, not shown: large carriers)
chain: B1 chain with A1G, A2P, G4A
notes: as for B1
Take B7: the binding result with human CX3CR1 receptor [1] is listed as “binds”.

B8: phage-displayed CX3CL1 mutant with N-terminal sequence QLQGLA (other, not shown: large carriers)
chain: B1 chain with A1Q, A2L, M5L, S6A
notes: as for B1
For B8, in the assay with human CX3CR1 receptor [1], the binding result is “binds”.

B9: phage-displayed CX3CL1 mutant with N-terminal sequence QPMGVA (other, not shown: large carriers)
chain: B1 chain with A1Q, A2P, Q3M, M5V, S6A
notes: as for B1
With B9, the binding result with human CX3CR1 receptor [1] is recorded as “binds”.

B10: phage-displayed CX3CL1 mutant with N-terminal sequence QPVALA (other, not shown: large carriers)
chain: B1 chain with A1Q, A2P, Q3V, G4A, M5L, S6A
notes: as for B1
Regarding B10, the binding result with human CX3CR1 receptor [1] is “binds”.

B11: phage-displayed CX3CL1 mutant with N-terminal sequence QPSALT (other, not shown: large carriers)
chain: B1 chain with A1Q, A2P, Q3S, G4A, M5L, S6T
notes: as for B1
Turning to B11, the binding result with human CX3CR1 receptor [1] was “binds”.

B12: phage-displayed CX3CL1 mutant with N-terminal sequence QPVGLS (other, not shown: large carriers)
chain: B1 chain with A1Q, A2P, Q3V, M5L
notes: as for B1
With B12, the binding result in the assay with human CX3CR1 receptor [1] is given as “binds”.

B13: phage-displayed CX3CL1 mutant with N-terminal sequence QSLGVS (other, not shown: large carriers)
chain: B1 chain with A1Q, A2S, Q3L, M5V
notes: as for B1
B13: in the assay with human CX3CR1 receptor [1], the binding result was “binds”.

B14: phage-displayed CX3CL1 mutant with N-terminal sequence QPGAVS (other, not shown: large carriers)
chain: B1 chain with A1Q, A2P, Q3G, G4A, M5V
notes: as for B1
Turning to B14, the binding result in the assay with human CX3CR1 receptor [1] is reported as “binds”.

B15: phage-displayed CX3CL1 mutant with N-terminal sequence QPHGVA (other, not shown: large carriers)
chain: B1 chain with A1Q, A2P, Q3H, M5V, S6A
notes: as for B1
In the case of B15, the binding result with human CX3CR1 receptor [1] is on record as “binds”.

B16: phage-displayed CX3CL1 mutant with N-terminal sequence QPSGMS (other, not shown: large carriers)
chain: B1 chain with A1Q, A2P, Q3S
notes: as for B1
Consider B16, for which the binding result with human CX3CR1 receptor [1] is on record as “binds”.

B17: phage-displayed CX3CL1 mutant with N-terminal sequence VQSVLS (other, not shown: large carriers)
chain: B1 chain with A1V, A2Q, Q3S, G4V, M5L
notes: Selected phage clone (antagonist selection); not tested singly
With B17, the binding result with human CX3CR1 receptor [2] is on record as “binds”.

B18: phage-displayed CX3CL1 mutant with N-terminal sequence QPYGMS (other, not shown: large carriers)
chain: B1 chain with A1Q, A2P, Q3Y
notes: as for B1
Consider B18, for which the binding result with human CX3CR1 receptor [1] is “binds”.

B19: phage-displayed CX3CL1 mutant with N-terminal sequence QPSALS (other, not shown: large carriers)
chain: B1 chain with A1Q, A2P, Q3S, G4A, M5L
notes: as for B1
Regarding B19, the binding result in the assay with human CX3CR1 receptor [1] is reported as “binds”.

B20: phage-displayed CX3CL1 mutant with N-terminal sequence QLFALS (other, not shown: large carriers)
chain: B1 chain with A1Q, A2L, Q3F, G4A, M5L
notes: as for B17
Turning to B20, the binding result with human CX3CR1 receptor [2] was “binds”.

B21: phage-displayed CX3CL1 mutant with N-terminal sequence QPQGLA (other, not shown: large carriers)
chain: B1 chain with A1Q, A2P, M5L, S6A
notes: as for B1
For B21, the binding result with human CX3CR1 receptor [1] is reported as “binds”.

B22: phage-displayed CX3CL1 mutant with N-terminal sequence QLLGVS (other, not shown: large carriers)
chain: B1 chain with A1Q, A2L, Q3L, M5V
notes: as for B1
As for B22, in the assay with human CX3CR1 receptor [1], the binding result is given as “binds”.

B23: phage-displayed CX3CL1 mutant with N-terminal sequence QVQGVT (other, not shown: large carriers)
chain: B1 chain with A1Q, A2V, M5V, S6T
notes: as for B1
Take B23: in the assay with human CX3CR1 receptor [1], the binding result was “binds”.

B24: phage-displayed CX3CL1 mutant with N-terminal sequence QPQAVS (other, not shown: large carriers)
chain: B1 chain with A1Q, A2P, G4A, M5V
notes: as for B1
Turning to B24, the binding result with human CX3CR1 receptor [1] is “binds”.

B25: phage-displayed CX3CL1 mutant with N-terminal sequence QPRALP (other, not shown: large carriers)
chain: B1 chain with A1Q, A2P, Q3R, G4A, M5L, S6P
notes: as for B1
Consider B25, for which the binding result with human CX3CR1 receptor [1] is reported as “binds”.

B26: phage-displayed CX3CL1 mutant with N-terminal sequence QSLVLP (other, not shown: large carriers)
chain: B1 chain with A1Q, A2S, Q3L, G4V, M5L, S6P
notes: as for B17
Regarding B26, in the assay with human CX3CR1 receptor [2], the binding result is given as “binds”.

B27: phage-displayed CX3CL1 mutant with N-terminal sequence QPVAVA (other, not shown: large carriers)
chain: B1 chain with A1Q, A2P, Q3V, G4A, M5V, S6A
notes: as for B1
Turning to B27, the binding result with human CX3CR1 receptor [1] is reported as “binds”.

B28: phage-displayed CX3CL1 mutant with N-terminal sequence QPYGVS (other, not shown: large carriers)
chain: B1 chain with A1Q, A2P, Q3Y, M5V
notes: as for B1
Regarding B28, the binding result in the assay with human CX3CR1 receptor [1] was “binds”.

B29: phage-displayed CX3CL1 mutant with N-terminal sequence QSPGMS (other, not shown: large carriers)
chain: B1 chain with A1Q, A2S, Q3P
notes: as for B1
B29: the binding result in the assay with human CX3CR1 receptor [1] is reported as “binds”.

B30: phage-displayed CX3CL1 mutant with N-terminal sequence ILDNGVA (other, not shown: large carriers)
chain: ILDNGVAKCNITCSKMTSKIPVALLIHYQQNQASCGKRAIILETRQHRLFCADPKEQWVKDAMQHLDRQAAALTRNG
notes: as for B17
Regarding B30, the binding result in the assay with human CX3CR1 receptor [2] is recorded as “binds”.

B31: phage-displayed CX3CL1 mutant with N-terminal sequence TLAQGLP (other, not shown: large carriers)
chain: B30 chain with I1T, D3A, N4Q, V6L, A7P
notes: as for B17
Take B31: in the assay with human CX3CR1 receptor [2], the binding result is reported as “binds”.

B32: phage-displayed CX3CL1 mutant with N-terminal sequence FLQSDVA (other, not shown: large carriers)
chain: B30 chain with I1F, D3Q, N4S, G5D
notes: as for B17
On to B32, for which the binding result in the assay with human CX3CR1 receptor [2] was “binds”.

B33: phage-displayed CX3CL1 mutant with N-terminal sequence SLIPVVP (other, not shown: large carriers)
chain: B30 chain with I1S, D3I, N4P, G5V, A7P
notes: as for B17
As for B33, in the assay with human CX3CR1 receptor [2], the binding result is “binds”.

B34: phage-displayed CX3CL1 mutant with N-terminal sequence ILGRDVA (other, not shown: large carriers)
chain: B30 chain with D3G, N4R, G5D
notes: as for B17
B34: the binding result with human CX3CR1 receptor [2] is on record as “binds”.

B35: phage-displayed CX3CL1 mutant with N-terminal sequence QRDSVLA (other, not shown: large carriers)
chain: B30 chain with I1Q, L2R, N4S, G5V, V6L
notes: as for B17
In the case of B35, in the assay with human CX3CR1 receptor [2], the binding result was “binds”.

B36: phage-displayed CX3CL1 mutant with N-terminal sequence SLDHGLS (other, not shown: large carriers)
chain: B30 chain with I1S, N4H, V6L, A7S
notes: as for B17
Consider B36, for which, in the assay with human CX3CR1 receptor [2], the binding result was “binds”.

B37: phage-displayed CX3CL1 mutant with N-terminal sequence TLPQGLA (other, not shown: large carriers)
chain: B30 chain with I1T, D3P, N4Q, V6L
notes: as for B17
For B37, the binding result with human CX3CR1 receptor [2] is recorded as “binds”.

B38: phage-displayed CX3CL1 mutant with N-terminal sequence QPLFAVA (other, not shown: large carriers)
chain: B30 chain with I1Q, L2P, D3L, N4F, G5A
notes: as for B17
As to B38, in the assay with human CX3CR1 receptor [2], the binding result is “binds”.

B39: phage-displayed CX3CL1 mutant with N-terminal sequence ILDLGLT (other, not shown: large carriers)
chain: B30 chain with N4L, V6L, A7T
notes: as for B17
Take B39: the binding result with human CX3CR1 receptor [2] is “binds”.

B40: phage-displayed CX3CL1 mutant with N-terminal sequence WLSQGLA (other, not shown: large carriers)
chain: B30 chain with I1W, D3S, N4Q, V6L
notes: as for B17
Regarding B40, the binding result with human CX3CR1 receptor [2] is given as “binds”.

B41: phage-displayed CX3CL1 mutant with N-terminal sequence ILDLGLS (other, not shown: large carriers)
chain: B30 chain with N4L, V6L, A7S
notes: as for B17
Consider B41, for which, in the assay with human CX3CR1 receptor [2], the binding result is given as “binds”.

B42: phage-displayed CX3CL1 mutant with N-terminal sequence ILDGGVS (other, not shown: large carriers)
chain: B30 chain with N4G, A7S
notes: as for B17
Turning to B42, the binding result in the assay with human CX3CR1 receptor [2] is “binds”.
